Experimental data taken from article PMC10908827, “Structural insight into an Arl1–ArfGEF complex involved in Golgi recruitment of a GRIP-domain golgin” (Nature Communications, 2024).

B1: S. cerevisiae full-length Gea2 with an N-terminal 6xHis-tag (natural protein, UniProt P39993 1-1459, looked up)
chain: MSDREFVTVDPVTIIIKECINLSTAMRKYSKFTSQSGVAALLGGGSEIFSNQDDYLAHTFNNLNTNKHNDPFLSGFIQLRLMLNKLKNLDNIDSLTILQPFLLIVSTSSISGYITSLALDSLQKFFTLNIINESSQNYIGAHRATVNALTHCRFEGSQQLSDDSVLLKVVFLLRSIVDSPYGDLLSNSIIYDVLQTILSLACNNRRSEVLRNAAQSTMIAVTVKIFSKLKTIEPVNVNQIYINDESYTNDVLKADTIGTNVESKEEGSQEDPIGMKVNNEEAISEDDGIEEEHIHSEKSTNGAEQLDIVQKTTRSNSRIQAYADDNYGLPVVRQYLNLLLSLIAPENELKHSYSTRIFGLELIQTALEISGDRLQLYPRLFTLISDPIFKSILFIIQNTTKLSLLQATLQLFTTLVVILGNNLQLQIELTLTRIFSILLDDGTANNSSSENKNKPSIIKELLIEQISILWTRSPSFFTSTFINFDCNLDRADVSINFLKALTKLALPESALTTTESVPPICLEGLVSLVDDMFDHMKDIDREEFGRQKNEMEILKKRDRKTEFIECTNAFNEKPKKGIPMLIEKGFIASDSDKDIAEFLFNNNNRMNKKTIGLLLCHPDKVSLLNEYIRLFDFSGLRVDEAIRILLTKFRLPGESQQIERIIEAFSSAYCENQDYDPSKISDNAEDDISTVQPDADSVFILSYSIIMLNTDLHNPQVKEHMSFEDYSGNLKGCCNHKDFPFWYLDRIYCSIRDKEIVMPEEHHGNEKWFEDAWNNLISSTTVITEIKKDTQSVMDKLTPLELLNFDRAIFKQVGPSIVSTLFNIYVVASDDHISTRMITSLDKCSYISAFFDFKDLFNDILNSIAKGTTLINSSHDDELSTLAFEYGPMPLVQIKFEDTNTEIPVSTDAVRFGRSFKGQLNTVVFFRIIRRNKDPKIFSKELWLNIVNIILTLYEDLILSPDIFPDLQKRLKLSNLPKPSPEISINKSKESKGLLSTFASYLKGDEEPTEEEIKSSKKAMECIKSSNIAASVFGNESNITADLIKTLLDSAKTEKNADNSRYFEAELLFIIELTIALFLFCKEEKELGKFILQKVFQLSHTKGLTKRTVRRMLTYKILLISLCADQTEYLSKLINDELLKKGDIFTQKFFATNQGKEFLKRLFSLTESEFYRGFLLGNENFWKFLRKVTAMKEQSESIFEYLNESIKTDSNILTNENFMWVLGLLDEISSMGAVGNHWEIEYKKLTESGHKIDKENPYKKSIELSLKSIQLTSHLLEDNNDLRKNEIFAIIQALAHQCINPCKQISEFAVVTLEQTLINKIEIPTNEMESVEELIEGGLLPLLNSSETQEDQKILISSILTIISNVYLHYLKLGKTSNETFLKILSIFNKFVEDSDIEKKLQQLILDKKSIEKGNGSSSHGSAHEQTPESNDVEIEATAPIDDNTDDDNKPKLSDVEKD
notes: Gea2, S. cerevisiae, Arf guanine nucleotide exchange factor, 1459 residues, amplified from genomic DNA of BY4741, vector pMCSG21; Homodimer by mass photometry and cryo-EM; also called Gea2 dimer

What was measured:
[1] = molecular target: T1, ΔNT17 Q72L Arl1 in the Arl1–Gea2 complex (Saccharomyces cerevisiae, UniProt P38116, Q72L); test: cryo-EM structure ([…] Å); format: binding; conditions: 1 mM GTP, 1 mM MgCl2, 1 mM TCEP, HEPES pH 7.4, 4 °C; Arl1 nucleotide site; Gea2 bound
T1 construct: Arl1 lacking N-terminal 17 residues, Q72L, C-terminal 6xHis; full-length Gea2 (1459 residues, dimer), N-terminal 6xHis; both from E. coli NiCo21(DE3); two Arl1 on one Gea2 dimer; with ARF guanine-nucleotide exchange factor 2
T1 sequence (P38116 18-183 Q72L): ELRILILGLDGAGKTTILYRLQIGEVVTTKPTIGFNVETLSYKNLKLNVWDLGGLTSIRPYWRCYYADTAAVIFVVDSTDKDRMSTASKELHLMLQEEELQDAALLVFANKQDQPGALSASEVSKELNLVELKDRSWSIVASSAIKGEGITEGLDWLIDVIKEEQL
T1 sequence (P39993 1-1459 partner): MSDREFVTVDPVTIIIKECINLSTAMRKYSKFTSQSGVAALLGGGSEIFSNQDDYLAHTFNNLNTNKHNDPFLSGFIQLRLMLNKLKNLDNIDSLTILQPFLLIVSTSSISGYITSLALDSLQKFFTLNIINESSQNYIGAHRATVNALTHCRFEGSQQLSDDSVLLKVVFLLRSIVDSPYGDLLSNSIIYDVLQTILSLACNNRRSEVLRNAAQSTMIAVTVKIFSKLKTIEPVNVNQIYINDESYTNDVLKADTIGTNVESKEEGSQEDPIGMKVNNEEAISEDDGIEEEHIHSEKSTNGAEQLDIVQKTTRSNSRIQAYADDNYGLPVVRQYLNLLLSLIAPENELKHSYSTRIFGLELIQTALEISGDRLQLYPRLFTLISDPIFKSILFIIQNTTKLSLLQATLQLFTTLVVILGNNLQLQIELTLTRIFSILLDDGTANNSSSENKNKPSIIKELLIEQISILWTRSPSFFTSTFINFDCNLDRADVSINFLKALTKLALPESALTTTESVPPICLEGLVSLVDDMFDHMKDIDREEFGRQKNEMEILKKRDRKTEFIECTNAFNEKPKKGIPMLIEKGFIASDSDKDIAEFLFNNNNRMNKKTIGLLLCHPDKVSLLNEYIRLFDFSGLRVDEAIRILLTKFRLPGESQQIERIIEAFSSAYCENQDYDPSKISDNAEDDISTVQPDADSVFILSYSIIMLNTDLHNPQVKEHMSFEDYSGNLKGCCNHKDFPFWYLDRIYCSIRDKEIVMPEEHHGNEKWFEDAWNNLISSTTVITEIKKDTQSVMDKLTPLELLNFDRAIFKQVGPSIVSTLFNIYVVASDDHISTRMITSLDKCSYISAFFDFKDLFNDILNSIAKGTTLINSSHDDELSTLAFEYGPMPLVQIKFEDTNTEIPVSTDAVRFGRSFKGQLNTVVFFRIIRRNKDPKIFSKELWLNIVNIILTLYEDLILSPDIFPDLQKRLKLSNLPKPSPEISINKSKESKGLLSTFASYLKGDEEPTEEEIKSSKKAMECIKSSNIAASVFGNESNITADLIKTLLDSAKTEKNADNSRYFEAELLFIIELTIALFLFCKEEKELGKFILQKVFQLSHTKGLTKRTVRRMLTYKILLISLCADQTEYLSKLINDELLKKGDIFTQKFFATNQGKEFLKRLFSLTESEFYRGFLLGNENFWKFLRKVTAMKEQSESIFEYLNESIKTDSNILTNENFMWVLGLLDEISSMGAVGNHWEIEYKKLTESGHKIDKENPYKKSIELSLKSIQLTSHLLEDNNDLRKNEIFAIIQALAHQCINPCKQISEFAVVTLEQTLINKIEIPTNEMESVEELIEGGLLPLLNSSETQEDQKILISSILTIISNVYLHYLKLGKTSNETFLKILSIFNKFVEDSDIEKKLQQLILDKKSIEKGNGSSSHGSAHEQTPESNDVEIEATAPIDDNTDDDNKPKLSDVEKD

[2] = molecular target: the molecule itself; test: mass photometry; 44.2 nM Gea2, Refeyn TwoMP, calibrated with β-amylase and thyroglobulin
[3] = molecular target: B1; test: SEC; 0.74 μM Gea2 (monomer) with 10-fold molar excess of ΔNT17 Q72L Arl1, 20 mM HEPES pH 7.4, 150 mM NaCl, 1 mM MgCl2, 1 mM TCEP, 1 mM GTP, 4 °C overnight; Superose 6 Increase 10/300 GL; peak fractions on SDS-PAGE; conditions: both partners purified

In the case of `Nc1nc2c(ncn2[C@@H]2O[C@H](COP(=O)(O)OP(=O)(O)OP(=O)(O)O)[C@@H](O)[C@H]2O)c(=O)[nH]1` [GTP], the “cryo-EM structure (3.3 Å)” value [1] is reported as “far away from the γ-phosphate of the bound GTP in our structure”.

With B1 the “stoichiometry N” value [2] was 2.

B2: N-terminal 17-residue truncated Q72L Arl1 with a C-terminal 6xHis-tag (natural protein, S. cerevisiae, UniProt P38116 18-183, looked up)
chain: ELRILILGLDGAGKTTILYRLQIGEVVTTKPTIGFNVETLSYKNLKLNVWDLGGLTSIRPYWRCYYADTAAVIFVVDSTDKDRMSTASKELHLMLQEEELQDAALLVFANKQDQPGALSASEVSKELNLVELKDRSWSIVASSAIKGEGITEGLDWLIDVIKEEQL
notes: Arl1, S. cerevisiae, the N-terminal 17 residues (amphipathic helix) removed, Q72L keeps it GTP-restricted; vector pMCSG28; mixed with Gea2 in buffer with 1 mM GTP; also called ΔNT17 Q72L Arl1; Arl1-GTP
B2: binds [3].
